T1: HEK293/hPRLR (Homo sapiens, UniProt P16471)
T1 construct: HA; expressed in transfected cells; host or cells: HEK293
T1 sequence (P16471 25-622): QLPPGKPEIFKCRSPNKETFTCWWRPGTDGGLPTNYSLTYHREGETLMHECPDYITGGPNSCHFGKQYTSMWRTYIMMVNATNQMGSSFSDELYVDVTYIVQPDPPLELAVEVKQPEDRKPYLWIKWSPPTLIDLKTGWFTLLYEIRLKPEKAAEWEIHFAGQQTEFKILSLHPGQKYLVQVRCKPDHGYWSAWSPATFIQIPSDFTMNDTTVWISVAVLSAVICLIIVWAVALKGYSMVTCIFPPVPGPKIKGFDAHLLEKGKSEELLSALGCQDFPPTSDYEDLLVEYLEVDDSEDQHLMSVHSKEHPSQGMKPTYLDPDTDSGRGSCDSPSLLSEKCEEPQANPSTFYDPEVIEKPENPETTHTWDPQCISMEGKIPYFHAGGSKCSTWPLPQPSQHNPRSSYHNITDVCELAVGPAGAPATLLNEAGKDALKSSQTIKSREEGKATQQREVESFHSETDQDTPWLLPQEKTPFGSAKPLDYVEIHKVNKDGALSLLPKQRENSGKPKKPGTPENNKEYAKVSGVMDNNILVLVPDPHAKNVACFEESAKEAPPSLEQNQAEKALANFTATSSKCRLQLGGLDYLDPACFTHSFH

T2: HEK293/mPRLR (Mus musculus, UniProt Q08501)
T2 construct: HA; expressed in transfected cells; host or cells: HEK293
T2 sequence (Q08501 20-608): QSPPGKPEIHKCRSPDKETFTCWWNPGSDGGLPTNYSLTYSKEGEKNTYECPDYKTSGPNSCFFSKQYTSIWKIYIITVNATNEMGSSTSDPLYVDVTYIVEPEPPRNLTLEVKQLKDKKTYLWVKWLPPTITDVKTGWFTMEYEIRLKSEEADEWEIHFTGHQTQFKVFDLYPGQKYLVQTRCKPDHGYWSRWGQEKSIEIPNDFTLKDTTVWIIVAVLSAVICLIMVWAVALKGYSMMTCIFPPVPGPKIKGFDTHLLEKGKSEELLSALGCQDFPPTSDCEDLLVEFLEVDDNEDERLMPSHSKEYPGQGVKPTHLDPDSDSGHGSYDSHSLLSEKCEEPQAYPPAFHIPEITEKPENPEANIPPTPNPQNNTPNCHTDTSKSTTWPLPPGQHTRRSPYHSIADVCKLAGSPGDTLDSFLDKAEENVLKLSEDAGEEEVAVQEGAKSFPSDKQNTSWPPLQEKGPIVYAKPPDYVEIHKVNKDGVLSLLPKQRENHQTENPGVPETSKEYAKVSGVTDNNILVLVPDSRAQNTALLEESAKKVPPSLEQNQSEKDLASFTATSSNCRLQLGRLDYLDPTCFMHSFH

T3: T47D (native PRLR expressing cell line) (Homo sapiens, UniProt P16471)
T3 construct: a native PRLR expressing cell line (T47D); endogenous in cells; host or cells: T47D
T3 sequence (P16471 25-622): T1 sequence (P16471 25-622)

B1: H1H6765P: anti-PRLR antibody, human IgG1 Fc; HCVR/LCVR SEQ ID NOs 18/26 (antibody, V domains shown)
VH: EVQLVESGGGVVRPGGSLRLSCVGSGFSFDDHGMNWVRQGPGKGLEWVSGFNWNGGSTNYAESVKGRFTISRDNARNSLFLQMNSLRAEDTALYYCVRGRSGWFNDAFDVWGPGTMVTVSS
VL: EIVLTQSPGTLSLSPGERATLSCRASQTINSNYLAWYRQKPGQTPRLLIYGTSSRATGIPDRFSGSGSGTDFSLTISRLEPEDFAVFYCQQYAGLPTFGPGTKVDIK
modifications: human IgG1 Fc
B2: H1H6782P: anti-PRLR antibody, human IgG1 Fc; HCVR/LCVR SEQ ID NOs 66/74; non-blocking (antibody, V domains shown)
VH: EVQLVESGGGLVQPGRSLRLSCAASGFTFDDYAMHWVRQAPGKGLEWVSGIIWNSGHIGYGDSVKGRFTISRDNAKKSLYLQMNSLRAEDTALYYCARDSGRYQSYFDYWGQGTLVTVSS
VL: DIQMTQSPSTLSASVGDRVTITCRASHIISSWLAWYQQKPGKAPKVLIFKASSLESGVPSRFSGSGSGTEFTLTISSLQPDDFATYYCQQYNTYSRTFGQGTKVEIK
modifications: human IgG1 Fc
B3: H1H6976N: human IgG1 Fc form of H2M6976N; anti-PRLR; HCVR/LCVR SEQ ID NOs 386/394 (antibody, V domains shown)
VH: EVQLLESGGGFVQPGGSLRLSCAASGFTFSSYAMSWVRQAPGKGLEWVSIISSNGRYTYYADSVKGRFTISRDNSKNTLYLQMNSLRAEDTAVYYCATVTGDWFDPWGQGTLVTVSS
VL: DIQLTQSPSFLSASVGDRVTITCWASQDIDISLAWYQQKPGKAPKLLIYAASTLQSGVPSKFSGSGSGTDFTLTISSLQPEDFSTYYCQQLNSYPITFGQGTRLDIK
modifications: human IgG1 Fc
B4: H1H6774P: anti-PRLR antibody, human IgG1 Fc; HCVR/LCVR SEQ ID NOs 34/42 (antibody, V domains shown)
VH: EVQLVESGGGLAQPGGSLRLSCVASGFTFSTYWMSWVRQAPGKGLDWVGNIKQDGSEQNYVDSVRGRFTISRDNAKNSLFLQMNSLRAEDTGVYYCATLLTKGDYWGQGTLVTVSS
VL: DIQMTQSPSSLSASVGDSVTITCRASQDISNYLDWFQQKPGKAPKSLIYAASILQGGVPSRFSGSGYGTDFTLTISSLQPEDFATYYCRQYKTYPFTFGPGTKVDIK
modifications: human IgG1 Fc
B5: H1H6781P: anti-PRLR antibody, human IgG1 Fc; HCVR/LCVR SEQ ID NOs 50/58 (antibody, V domains shown)
VH: EVQLVESGGDLVQPGESLRLSCTASGFTFNSYEMNWVRQAPGKGLEWVSYISSSGGTKYYVDSVKGRFTISRDNAKKSLYLQMNSLRADDTALYYCARLNGVDVFDIWGQGTMVTVSS
VL: DIQMTQSPSSLSASVGDRVTITCRASQDIFNYLAWFQQKPGKVPELLISAASTLQSGVPSRFSGSGSGTYFTLTISSLQPEDIATYYCQRYNSAPLTFGGGTKVEIK
modifications: human IgG1 Fc
B6: H1H6762P: anti-PRLR antibody, human IgG1 Fc; HCVR/LCVR SEQ ID NOs 2/10 (antibody, V domains shown)
VH: QVQLVESGGGVVQPGRSLRLSCAASGFTFSHYGMVWVRQPPGKGLEWVALISFDGTTKYYADSVKGRFTISRDNSKNTLYLQMNSLRAEDTAVYFCVGAIAAAAFDLWGRGTLVTVSS
VL: EIVMTQSPATLSVSPGERATLSCRASQSVSSDLAWYQQKPGQAPRLLIYSASARATGIPARFTGSGSGTDFTLTISSLQSEDFAVYYCQQYNNWPMYTFGQGTKLEIK
modifications: human IgG1 Fc

test system: HEK293 (non-expressing parental cells); assay: FACS cell surface binding; conditions: not given
Experimental: (§1) The ability of anti-PRLR antibodies to selectively bind PRLR expressing cell lines was next determined. Human, monkey macaca fascicularis, and mouse PRLR constructs with an HA tag were stably introduced into HEK293 cells via Lipofectamine 2000-mediated transfection methodology. Transfectants (HEK293/hPRLR, HEK293/mfPRLR and HEK293/mPRLR) were selected for at least 2 weeks in complete growth media plus G418.
(§2) Cell surface expression of PRLR on 293/hPRLR cells was assessed via FACS analysis. Briefly, 1×10^5 cells were incubated with 10 μg/ml of Control antibody I, or an isotype control for 30 min on ice in antibody dilution buffer. Following two washes with antibody dilution buffer, cells were incubated with 10 μg/ml of PE conjugated anti-human secondary antibodies for 30 min on ice. Following two additional washes, samples were run on a Hypercyt® cytometer and analyzed in FORECYT™ (IntelliCyt, Albuquerque, N. Mex.). The mean fluorescence intensities (MFI) were expressed as fold change above isotype control levels (background). FACS binding confirmed that Control I selectively bound to 293/hPRLR expressing cells with MFIs that were 30 fold above background (isotype ctrl) levels and less than 2 fold binding on parental cells.
(§3) Next, the anti-PRLR antibodies of the present invention were tested via FACS for selective binding to the engineered overexpressing PRLR HEK293 cell lines, as well as to non-expressing HEK293 cells and a native PRLR expressing cell line (T47D).

Point of comparison: B1, “FACS Cell Binding (Fold Above Background)” value 2 Fold Above Background. Against it:
- B2 — higher, 3 Fold Above Background
- B3 — lower, 1 Fold Above Background
- B4 — lower, 1 Fold Above Background
- B5 — lower, 1 Fold Above Background
- B6 — lower, 1 Fold Above Background

target: T1, HEK293/hPRLR; assay: FACS cell surface binding; conditions: not given
Experimental: as §1, §2, §3

Point of comparison: B6, “FACS Cell Binding (Fold Above Background)” value 36 Fold Above Background. Against it:
- B1 — higher, 38 Fold Above Background
- B2 — higher, 41 Fold Above Background
- B3 — lower, 8 Fold Above Background
- B4 — lower, 1 Fold Above Background
- B5 — higher, 37 Fold Above Background

target: T2, HEK293/mPRLR; assay: FACS cell surface binding; conditions: not given
Experimental: as §1, §2, §3

Point of comparison: B5, “FACS Cell Binding (Fold Above Background)” value 1 Fold Above Background. Against it:
- B1 — the same, 1 Fold Above Background
- B2 — higher, 4 Fold Above Background
- B3 — the same, 1 Fold Above Background
- B4 — the same, 1 Fold Above Background
- B6 — higher, 2 Fold Above Background

target: T3, T47D (native PRLR expressing cell line); assay: FACS cell surface binding; conditions: not given
Experimental: as §1, §2, §3

Point of comparison: B4, “FACS Cell Binding (Fold Above Background)” value 39 Fold Above Background. Against it:
- B1 — higher, 40 Fold Above Background
- B2 — higher, 43 Fold Above Background
- B3 — lower, 37 Fold Above Background
- B5 — higher, 40 Fold Above Background
- B6 — lower, 38 Fold Above Background

test system: HEK293/hPRLR/STAT5-Luc cells (human PRLR); assay: STAT5-Luc luciferase reporter assay, blocking of PRL-mediated receptor activation; format: cell-based; conditions: 5 nM constant PRL, 6 hr at 37° C.
From the text: The ability of anti-PRLR antibodies to block prolactin (PRL)-mediated receptor activation was examined in a luciferase-based reporter assay. The endocrine hormone PRL binds to the extracellular domain of its cognate receptor PRLR, triggering rapid homodimerization and activating several downstream signaling cascades.
In this example, an engineered cell line was used to determine the ability of anti-PRLR antibodies to block ligand activation of the PRLR receptor. Briefly, HEK293/hPRLR/STAT5-Luc cell lines with stable incorporation of a human PRLR expression cassette and the STAT5-dependent luciferase reporter were generated via sequential rounds of Lipofectamine® 2000-mediated transfection (LifeTechnologies, Carlsbad, Calif.). Cells were selected for at least two weeks in the presence of 500 μg/mL G418 (hPRLR) and 100 μg/mL hygromycin B (STAT5-Luc). The STAT5-Luc assay utilized 2×10^5 HEK293/hPRLR/STAT5-Luc cells seeded in complete growth medium on PDL-coated 96 well plates grown overnight at 37° C., 5% CO2. To generate antibody inhibition curves, cells were incubated (6 hr at 37° C.) with serially diluted anti-human PRLR antibodies (100 nM to 24 pM) in the presence of 5 nM constant PRL before recording signal. PRL dose response curves were generated by the addition of serially diluted PRL (100 nM to 24 pM) to cells and recording signal after a 6 hr (37° C.) incubation in the absence of antibodies. The ability of the antibodies to activate PRLR in the absence of ligand was also assessed.
Luciferase activity was measured with ONE-GLO™ reagent (Promega, Madison, Wis.). Relative light units (RLUs) were measured on a Victor luminometer (Perkin Elmer, Shelton, Conn.). EC50/IC50 values were determined from a four-parameter logistic equation over an 8-point response curve using GraphPad Prism. Percent blocking and percent activation are reported for the highest antibody dose.

Point of comparison: B6, IC50 0.0219 nM. Against it:
- B1 — 1.5-fold higher, 0.033 nM
- B2 — higher, > 100 nM
- B5 — within 1.5-fold, 0.027 nM

same assay, conditions: 100 nM antibody, 5 nM PRL

Point of comparison: B4, “Percent Blocking at 100 nM Antibody” value 0%. Against it:
- B1 — higher, 100%
- B2 — the same, 0%
- B3 — higher, 23%
- B5 — higher, 100%
- B6 — higher, 100%

Reference: patent US9688764B2, “Methods of treating breast cancer by administering anti-human prolactin receptor (PRLR) antibodies” (REGENERON PHARMACEUTICALS, INC., priority 2013, dated 2017)
